Laboratory results as given in US20190144549A1 (TILOS THERAPEUTICS, published 2019).
Values belong to the binder of their own block, whether it stands above or below them.

Legend:
[1] = molecular target: T1, LAP (LAP-TGFβ1) expressed endogenously on murine cells (murine, UniProt P04202 30-390); experiment: summary table; binding to GARP+ murine cells
T1 construct: Natural LAP-TGFβ1 on primary mouse cells, GARP+ or GARPneg; also called LAP on murine platelets, T cells, Tregs, B cells, tumour immune cells

[2] = molecular target: T2, murine LAP-TGFβ1 on transfected cells (murine, UniProt P04202 30-390); experiment: summary table; binding to murine TGFβ1 on transfected cells
T2 construct: Overexpressed on P3U1 or HT1080 cells; also called P3U1-murine LAP-TGFβ1; murine TGFβ1 on transfected cells

[3] = molecular target: T3, human LAP-TGFβ3 on HT1080 cells (human, UniProt P10600 24-412); experiment: summary table; binding to human TGFβ3
T3 construct: also called human TGFβ3
T3 sequence: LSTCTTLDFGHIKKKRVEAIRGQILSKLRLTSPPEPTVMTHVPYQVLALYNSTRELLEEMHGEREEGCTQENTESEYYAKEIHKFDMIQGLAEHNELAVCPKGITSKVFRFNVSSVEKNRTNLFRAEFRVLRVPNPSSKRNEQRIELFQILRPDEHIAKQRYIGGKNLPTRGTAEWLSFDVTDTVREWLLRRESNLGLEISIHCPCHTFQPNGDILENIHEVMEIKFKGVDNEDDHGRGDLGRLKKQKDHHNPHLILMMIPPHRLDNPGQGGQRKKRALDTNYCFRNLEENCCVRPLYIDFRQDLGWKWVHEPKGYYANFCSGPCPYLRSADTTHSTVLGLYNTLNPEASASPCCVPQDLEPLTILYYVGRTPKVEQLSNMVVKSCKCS
Method: (§1) Briefly, 4×10⁵ each of (a) HT1080 cells, (b) HT1080 cells overexpressing human LAP-TGFβ1, (c) HT1080 cells overexpressing human LAP-TGFβ2, (d) HT1080 cells overexpressing human LAP-TGFβ3, (e) HT1080 cells overexpressing murine LAP-TGFβ1, (f) P3U1 cells, (g) P3U1 cells overexpressing LAP-TGFβ1 and GARP, and (h) P3U1 cells overexpressing LAP-TGFβ1 and LRRC33 were cultured in 96-well plates. The plates were centrifuged for 5 min at 1,500 rpm, liquid was removed, and cells were resuspended with 200 μL FACS buffer. The plates were centrifuged again, diluted primary antibody was added to each well, and the plates were incubated on ice for 20 minutes, followed by centrifugation. The cells were resuspended in 200 μL FACS buffer, centrifuged again, and resuspended in 50 μL diluted secondary antibody (Alexa647-anti-Human IgG or APC-anti-Mouse IgG). The plates were incubated on ice for 20 minutes in the dark, washed twice with 200 μL FACS buffer, and cells from each well (in 200 μL FACS buffer) were read on the Attune NXT instrument.

[4] = molecular target: T4, human LAP-TGFβ1 on transfected cells (human, UniProt P01137 30-390); experiment: cell-based or functional assay
[5] = molecular target: T2, murine LAP-TGFβ1 on transfected cells; experiment: cell-based or functional assay
[6] = molecular target: T5, human LAP-TGFβ2 on HT1080 cells (human, UniProt P61812 21-414); experiment: summary table; binding to human TGFβ2
T5 construct: also called human TGFβ2
T5 sequence: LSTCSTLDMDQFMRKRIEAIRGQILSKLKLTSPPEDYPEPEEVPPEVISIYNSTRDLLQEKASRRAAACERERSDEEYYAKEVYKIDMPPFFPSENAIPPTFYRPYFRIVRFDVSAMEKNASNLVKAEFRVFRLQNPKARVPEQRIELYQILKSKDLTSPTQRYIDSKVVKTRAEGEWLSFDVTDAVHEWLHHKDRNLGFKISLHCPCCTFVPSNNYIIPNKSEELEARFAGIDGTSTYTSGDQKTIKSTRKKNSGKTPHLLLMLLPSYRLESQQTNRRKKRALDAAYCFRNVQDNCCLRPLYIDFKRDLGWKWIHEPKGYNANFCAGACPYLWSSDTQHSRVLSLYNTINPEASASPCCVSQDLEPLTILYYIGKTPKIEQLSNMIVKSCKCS
Method: as §1

[7] = molecular target: T4, human LAP-TGFβ1 on transfected cells; experiment: summary table; binding to human TGFβ1 on transfected cells
[8] = molecular target: T6, recombinant human LAP-TGFβ1-Fc fusion protein (human, UniProt P01137 30-390); experiment: bio-layer interferometry (ForteBio), single concentration
T6 construct: also called human TGFβ1 in absence of anchor protein (ForteBio); not shown: Fc part, linker and order of fusion not described
Description: The ability of the antibodies to bind in this assay provides definitive evidence that the antibodies bind to LAP-TGFβ1 in the absence of an anchor protein.

[9] = molecular target: T7, LAP-only variant (human LAP without mature TGFβ1) on HT1080 cells (human, UniProt P01137 30-277); experiment: flow cytometry, HT1080 cells overexpressing the LAP-only variant
T7 construct: Overexpressed on HT1080 cells; also called HT1080-emptyLAP; empty LAP
Method: as §1
(§2) Briefly, 4×10⁵ each of (a) HT1080 cells, (b) HT1080 cells overexpressing human LAP-TGFβ1, (c) HT1080 cells overexpressing LAP-TGFβ1 with K27C and Y75C mutations, (d) HT1080 cells overexpressing LAP-TGFβ1 with a Y74T mutation, and (e) HT1080 cells overexpressing the LAP-only variant were cultured in 96-well plates. […]

[10] = molecular target: T8, mature TGFβ1 (free human TGFβ1, without LAP) (human, UniProt P01137 279-390); experiment: inhibition of a TGFβ1 ELISA after pre-incubation with mature TGFβ1
T8 construct: also called free TGFβ1
Method: To determine whether anti-LAP antibodies 28G11_hIgG1, 22F9_hIgG1, 20E6_hIgG1, 17G8_hIgG1, and 24E3_hIgG1, bind to free human TGFβ1 (i.e., mature TGFβ1 that lacks LAP), the ability of the antibodies to inhibit an anti-TGFβ ELISA was evaluated. Briefly, mature TGFβ1 (1000 μg) was incubated with the indicated anti-LAP antibodies at 10 μg/mL, an isotype control antibody as a negative control or the anti-TGFβ antibody 1D11 as a positive control for 10 minutes on ice. Supernatants were assayed in a TGFβ1 ELISA (R&D Systems) according to the manufacturer instructions to measure free TGFβ1.

[11] = molecular target: T3, human LAP-TGFβ3 on HT1080 cells; experiment: flow cytometry, HT1080 cells overexpressing human LAP-TGFβ3
Method: as §1

[12] = molecular target: T5, human LAP-TGFβ2 on HT1080 cells; experiment: flow cytometry, HT1080 cells overexpressing human LAP-TGFβ2
Method: as §1

[13] = molecular target: T9, human LAP-TGFβ1 with a Y74T mutation on HT1080 cells (human, UniProt P01137 30-390); experiment: flow cytometry, HT1080 cells overexpressing the variant
T9 construct: also called HT1080-Y74T; Y74T (open) LAP-TGFβ1 variant
Method: as §1, §2

T4 sequence (P01137 other isoform, or with tags, fused parts or gaps): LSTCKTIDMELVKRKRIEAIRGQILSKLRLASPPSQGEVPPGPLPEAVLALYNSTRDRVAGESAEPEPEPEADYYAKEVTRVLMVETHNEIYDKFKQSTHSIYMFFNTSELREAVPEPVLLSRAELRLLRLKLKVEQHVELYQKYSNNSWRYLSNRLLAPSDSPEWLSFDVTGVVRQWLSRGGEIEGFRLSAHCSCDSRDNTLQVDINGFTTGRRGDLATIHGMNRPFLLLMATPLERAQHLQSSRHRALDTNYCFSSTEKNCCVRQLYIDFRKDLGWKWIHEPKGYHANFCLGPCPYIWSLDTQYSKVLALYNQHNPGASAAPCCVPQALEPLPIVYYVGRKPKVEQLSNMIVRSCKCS
T2 sequence (P04202 30-390): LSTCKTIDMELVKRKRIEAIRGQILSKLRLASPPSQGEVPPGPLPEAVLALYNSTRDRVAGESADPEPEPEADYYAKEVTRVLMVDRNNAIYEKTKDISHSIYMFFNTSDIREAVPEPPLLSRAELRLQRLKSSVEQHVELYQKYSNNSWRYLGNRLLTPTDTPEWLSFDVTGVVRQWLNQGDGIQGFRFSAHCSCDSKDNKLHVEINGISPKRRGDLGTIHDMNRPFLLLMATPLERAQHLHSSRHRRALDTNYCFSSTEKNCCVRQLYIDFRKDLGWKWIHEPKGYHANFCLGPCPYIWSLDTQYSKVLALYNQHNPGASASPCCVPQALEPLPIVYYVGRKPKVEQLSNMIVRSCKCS
T7 sequence (P01137 30-277 limits assumed, change not shown): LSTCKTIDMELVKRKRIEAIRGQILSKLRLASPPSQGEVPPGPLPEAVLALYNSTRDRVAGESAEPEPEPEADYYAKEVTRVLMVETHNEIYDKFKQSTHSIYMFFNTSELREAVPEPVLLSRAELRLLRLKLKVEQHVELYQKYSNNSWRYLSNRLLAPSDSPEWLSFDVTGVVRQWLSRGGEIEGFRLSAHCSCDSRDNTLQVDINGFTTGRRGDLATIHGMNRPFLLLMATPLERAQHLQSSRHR
T6 sequence (P01137 other isoform, or with tags, fused parts or gaps limits assumed): as the sequence (P01137 other isoform, or with tags, fused parts or gaps) above
T1 sequence (P04202 30-390): as the sequence (P04202 30-390) above
T9 sequence (P01137 other isoform, or with tags, fused parts or gaps Y74T Y74T): as the sequence (P01137 other isoform, or with tags, fused parts or gaps) above, with Y74T counted along it
T8 sequence (P01137 279-390 limits assumed): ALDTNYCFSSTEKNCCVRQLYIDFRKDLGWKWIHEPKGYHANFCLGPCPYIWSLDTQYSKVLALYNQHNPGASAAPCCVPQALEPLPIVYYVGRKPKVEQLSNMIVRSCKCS

binding result [1]: binds
binding result [2]: binds
B1: 7H4 (antibody, V domains shown)
VH: DVQLQESGPGLVKPSQSLSLTCSVTGYSITSGYYWNWIRQFPGNKLEWMGYISYDGTNNYNPSLKNRISITRDTSKHQFFLKLNSVTTEDTATYYCARSFYNNYFDFWGQGTTLTVSS
VL: DIQMTQSPSSLSASLGGKVTITCKASQDIDKYIAWYQHKPGKGPRLLIHYTSTLQPGIPSRFSGSGSGRDYSFNISNLEPEDIATYYCLQYDNLRTFGGGTKLEIK

binding result [3]: no binding
IC50 of inhibition of TGFβ1 activation, P3U1 cell assay [4]: 1.4 µg/mL
IC50 of inhibition of TGFβ1 activation, P3U1 cell assay [5]: 1 µg/mL
binding result [6]: no binding
B2: 28G11 (antibody, V domains shown)
VH: EVKLVESGGGLVQPGGSLSLSCAASGFTFTDYYMSWVRQPPGKALEWLGFIRNKPNGYTTEYSASVKGRFTISRDNSQSILYLQMNVLRAEDSATYYCARYTGGGYFDYWGQGTTLTVSS
VL: DIQMTQTTSSLSASLGDRLTISCRASQDISNYLNWYQQKPDGTVKLLIYYTSRLHSGVPSRFSGSGSGTDYSLTISNLEQADIATYFCQQGDTLPWTFGGGTKLEIK
notes: Mouse hybridoma antibody; Used biotinylated or dye-conjugated in cell assays; also called 28G11_(hyb); 28G11_hyb

binding result [7]: no binding
binding result [8]: no binding
B3: 16B4 (antibody, V domains shown)
VH: QVTLKESGPGILQPSQTLSLTCSFSGFSLNTFGMGVGWIRQPSGKGLEWLAHIWWDDDKYYNPALKSRLTISKDTSKNQVFLKIANVDTADTATYYCARIYYYGSWGLYYFDYWGQGTTLTVSS
VL: DIQMTQTTSSLSASLGDRVTISCRASQDISNYLNWYQQKPDGTVKLLIYYTSRLHSGVPSRFSGSGSGTDYSLTISNLEQEDIATYFCQQGNTLPPTFGGGTKLEIK

binding result [9]: no binding
binding result [10]: no binding (tested: 10 µg/mL)
binding result [11]: no binding
binding result [12]: no binding
binding result [13]: no binding
B4: 28G11_hIgG1 (antibody, V domains shown)
VH: EVKLVESGGGLVQPGGSLSLSCAASGFTFTDYYMSWVRQPPGKALEWLGFIRNKPNGYTTEYSASVKGRFTISRDNSQSILYLQMNVLRAEDSATYYCARYTGGGYFDYWGQGTTLTVSS
VL: DIQMTQTTSSLSASLGDRLTISCRASQDISNYLNWYQQKPDGTVKLLIYYTSRLHSGVPSRFSGSGSGTDYSLTISNLEQADIATYFCQQGDTLPWTFGGGTKLEIK
notes: 28G11 in human IgG1 format, by its name
